{"source": "patent US20150132305A1", "note": "No end group written: not given here."}
{"target": "SDP051 humanized anti-Cad-11 EC1 antibody (Vκ1/VH5)", "test": "flow cytometry blocking assay: peptide titrated with SDP 051 at 0.5 ug/ml on Cad-11 expressing 431D cells; blocked: binding of SDP051 to cell-surface Cad-11; MFI", "units": {"IC50 (read off the curve)": "µg/mL"}}
{"binder": "GWVWNQFFVIEEYTGPDPVLVGRLHSDIDSGDGNIKY (also: linked to BSA)", "note": "[Cad-11 37-mer peptide linked to BSA (encompasses the Cad-11 immunogen)]", "IC50 (read off the curve)": 0.2}
{"target": "T1, Cad-11 37-mer peptide linked to BSA (encompasses the Cad-11 immunogen) (human)", "T1 sequence (peptide, linked to BSA)": "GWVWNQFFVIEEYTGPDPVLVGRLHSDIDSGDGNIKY", "test": "ELISA on BSA-coupled 37-mer peptides, 500 ng/ml coat", "units": {"fold greater binding to the Cad-11 antigen than to the related antigens from the other cadherins": "fold"}}
{"binder": "SDP061 humanized anti-Cad-11 EC1 antibody (Vκ2/VH1) (antibody, IgG4, V domains shown) VH: EVQLVQSGPELKKPGASVKISCKASGYSFTGYFMNWVKQAHGQGLEWIGRINPYTGDTFYNQKFKGRATLTVDKSSSTAYMELVSLSSEDSAVYYCGRLGSRYWYFDVWGQGTTVTVSS VL: DVLMTQTPLSSPVTLGQPASISCRSSQSIIHSNGNTYLEWYLQKPGQSPQLLIYKVSNRFSGVPDRFSGSGSGTDFTLKISRVEAEDVGVYYCFQGSHVPWTFGQGTKLEIK", "fold greater binding to the Cad-11 antigen than to the related antigens from the other cadherins": "> 20"}
{"binder": "SDP031 humanized anti-Cad-11 EC1 antibody (Vκ1/VH3) (antibody, IgG4, V domains shown) VH: EVQLVQSGAEVKKPGASVKISCKASGYSFTGYFMNWVRQAPGQGLEWIGRINPYTGDTFYNQKFKGRATLTVDKSTSTAYMELSSLRSEDTAVYYCGRLGSRYWYFDVWGQGTTVTVSS VL: DVLMTQTPLSSPVTLGQPASISCRSSQSIIHSNGNTYLEWYLQKPGQSPQLLIYKVSNRFSGVPDRFTGSGSGTDFTLKISRVEAEDVGVYYCFQGSHVPWTFGQGTKLEIK", "fold greater binding to the Cad-11 antigen than to the related antigens from the other cadherins": "> 20"}
{"binder": "SDP071 humanized anti-Cad-11 EC1 antibody (Vκ2/VH2) (antibody, IgG4, V domains shown) VH: EVQLVQSGAEVKKPGASVKISCKASGYSFTGYFMNWVKQAPGQGLEWIGRINPYTGDTFYNQKFKGRATLTVDKSTSTAYMELSSLRSEDTAVYYCGRLGSRYWYFDVWGQGTTVTVSS VL: DVLMTQTPLSSPVTLGQPASISCRSSQSIIHSNGNTYLEWYLQKPGQSPQLLIYKVSNRFSGVPDRFSGSGSGTDFTLKISRVEAEDVGVYYCFQGSHVPWTFGQGTKLEIK", "fold greater binding to the Cad-11 antigen than to the related antigens from the other cadherins": "> 20"}
{"target": "T1, Cad-11 37-mer peptide linked to BSA (encompasses the Cad-11 immunogen) (human)", "test": "ELISA, BSA-coupled 37-mer cadherin peptide coated at 500 ng/ml, A450", "units": {"EC50 (read off the curve)": "µg/mL"}}
{"binder": "SDP081 humanized anti-Cad-11 EC1 antibody (Vκ2/VH3) (antibody, IgG4, V domains shown) VH: EVQLVQSGAEVKKPGASVKISCKASGYSFTGYFMNWVRQAPGQGLEWIGRINPYTGDTFYNQKFKGRATLTVDKSTSTAYMELSSLRSEDTAVYYCGRLGSRYWYFDVWGQGTTVTVSS VL: DVLMTQTPLSSPVTLGQPASISCRSSQSIIHSNGNTYLEWYLQKPGQSPQLLIYKVSNRFSGVPDRFSGSGSGTDFTLKISRVEAEDVGVYYCFQGSHVPWTFGQGTKLEIK", "EC50 (read off the curve)": 0.07}
{"binder": "SDP061 humanized anti-Cad-11 EC1 antibody (Vκ2/VH1) (antibody, IgG4, V domains shown) VH: EVQLVQSGPELKKPGASVKISCKASGYSFTGYFMNWVKQAHGQGLEWIGRINPYTGDTFYNQKFKGRATLTVDKSSSTAYMELVSLSSEDSAVYYCGRLGSRYWYFDVWGQGTTVTVSS VL: DVLMTQTPLSSPVTLGQPASISCRSSQSIIHSNGNTYLEWYLQKPGQSPQLLIYKVSNRFSGVPDRFSGSGSGTDFTLKISRVEAEDVGVYYCFQGSHVPWTFGQGTKLEIK", "EC50 (read off the curve)": 0.05}
{"binder": "SDP031 humanized anti-Cad-11 EC1 antibody (Vκ1/VH3) (antibody, IgG4, V domains shown) VH: EVQLVQSGAEVKKPGASVKISCKASGYSFTGYFMNWVRQAPGQGLEWIGRINPYTGDTFYNQKFKGRATLTVDKSTSTAYMELSSLRSEDTAVYYCGRLGSRYWYFDVWGQGTTVTVSS VL: DVLMTQTPLSSPVTLGQPASISCRSSQSIIHSNGNTYLEWYLQKPGQSPQLLIYKVSNRFSGVPDRFTGSGSGTDFTLKISRVEAEDVGVYYCFQGSHVPWTFGQGTKLEIK", "EC50 (read off the curve)": 0.06}
{"binder": "SDP131 humanized anti-Cad-11 EC1 antibody (Vκ3/VH3) (antibody, IgG4, V domains shown) VH: EVQLVQSGAEVKKPGASVKISCKASGYSFTGYFMNWVRQAPGQGLEWIGRINPYTGDTFYNQKFKGRATLTVDKSTSTAYMELSSLRSEDTAVYYCGRLGSRYWYFDVWGQGTTVTVSS VL: DVVMTQTPLSSPVTLGQPASISCRSSQSIIHSNGNTYLEWYLQKPGQSPQLLIYKVSNRFSGVPDRFSGSGSGTDFTLKISRVEAEDVGVYYCFQGSHVPWTFGQGTKLEIK", "EC50 (read off the curve)": 0.07}
{"binder": "SDP041 humanized anti-Cad-11 EC1 antibody (Vκ1/VH4) (antibody, IgG4, V domains shown) VH: EVQLVQSGAEVKKPGASVKVSCKASGYSFTGYFMNWVRQAPGQGLEWIGRINPYTGDTFYNQKFKGRATITVDKSTSTAYMELSSLRSEDTAVYYCGRLGSRYWYFDVWGQGTTVTVSS VL: DVLMTQTPLSSPVTLGQPASISCRSSQSIIHSNGNTYLEWYLQKPGQSPQLLIYKVSNRFSGVPDRFTGSGSGTDFTLKISRVEAEDVGVYYCFQGSHVPWTFGQGTKLEIK", "EC50 (read off the curve)": 0.06}
{"binder": "SDP091 humanized anti-Cad-11 EC1 antibody (Vκ2/VH4) (antibody, IgG4, V domains shown) VH: EVQLVQSGAEVKKPGASVKVSCKASGYSFTGYFMNWVRQAPGQGLEWIGRINPYTGDTFYNQKFKGRATITVDKSTSTAYMELSSLRSEDTAVYYCGRLGSRYWYFDVWGQGTTVTVSS VL: DVLMTQTPLSSPVTLGQPASISCRSSQSIIHSNGNTYLEWYLQKPGQSPQLLIYKVSNRFSGVPDRFSGSGSGTDFTLKISRVEAEDVGVYYCFQGSHVPWTFGQGTKLEIK", "EC50 (read off the curve)": 0.07}
{"binder": "SDP011 humanized anti-Cad-11 EC1 antibody (Vκ1/VH1) (antibody, IgG4, V domains shown) VH: EVQLVQSGPELKKPGASVKISCKASGYSFTGYFMNWVKQAHGQGLEWIGRINPYTGDTFYNQKFKGRATLTVDKSSSTAYMELVSLSSEDSAVYYCGRLGSRYWYFDVWGQGTTVTVSS VL: DVLMTQTPLSSPVTLGQPASISCRSSQSIIHSNGNTYLEWYLQKPGQSPQLLIYKVSNRFSGVPDRFTGSGSGTDFTLKISRVEAEDVGVYYCFQGSHVPWTFGQGTKLEIK", "EC50 (read off the curve)": 0.07}
{"binder": "SDP111 humanized anti-Cad-11 EC1 antibody (Vκ3/VH1) (antibody, IgG4, V domains shown) VH: EVQLVQSGPELKKPGASVKISCKASGYSFTGYFMNWVKQAHGQGLEWIGRINPYTGDTFYNQKFKGRATLTVDKSSSTAYMELVSLSSEDSAVYYCGRLGSRYWYFDVWGQGTTVTVSS VL: DVVMTQTPLSSPVTLGQPASISCRSSQSIIHSNGNTYLEWYLQKPGQSPQLLIYKVSNRFSGVPDRFSGSGSGTDFTLKISRVEAEDVGVYYCFQGSHVPWTFGQGTKLEIK", "EC50 (read off the curve)": 0.07}
{"binder": "SDP141 humanized anti-Cad-11 EC1 antibody (Vκ3/VH4) (antibody, IgG4, V domains shown) VH: EVQLVQSGAEVKKPGASVKVSCKASGYSFTGYFMNWVRQAPGQGLEWIGRINPYTGDTFYNQKFKGRATITVDKSTSTAYMELSSLRSEDTAVYYCGRLGSRYWYFDVWGQGTTVTVSS VL: DVVMTQTPLSSPVTLGQPASISCRSSQSIIHSNGNTYLEWYLQKPGQSPQLLIYKVSNRFSGVPDRFSGSGSGTDFTLKISRVEAEDVGVYYCFQGSHVPWTFGQGTKLEIK", "EC50 (read off the curve)": 0.06}
{"binder": "SDP121 humanized anti-Cad-11 EC1 antibody (Vκ3/VH2) (antibody, IgG4, V domains shown) VH: EVQLVQSGAEVKKPGASVKISCKASGYSFTGYFMNWVKQAPGQGLEWIGRINPYTGDTFYNQKFKGRATLTVDKSTSTAYMELSSLRSEDTAVYYCGRLGSRYWYFDVWGQGTTVTVSS VL: DVVMTQTPLSSPVTLGQPASISCRSSQSIIHSNGNTYLEWYLQKPGQSPQLLIYKVSNRFSGVPDRFSGSGSGTDFTLKISRVEAEDVGVYYCFQGSHVPWTFGQGTKLEIK", "EC50 (read off the curve)": 0.05}
{"binder": "SDP021 humanized anti-Cad-11 EC1 antibody (Vκ1/VH2) (antibody, IgG4, V domains shown) VH: EVQLVQSGAEVKKPGASVKISCKASGYSFTGYFMNWVKQAPGQGLEWIGRINPYTGDTFYNQKFKGRATLTVDKSTSTAYMELSSLRSEDTAVYYCGRLGSRYWYFDVWGQGTTVTVSS VL: DVLMTQTPLSSPVTLGQPASISCRSSQSIIHSNGNTYLEWYLQKPGQSPQLLIYKVSNRFSGVPDRFTGSGSGTDFTLKISRVEAEDVGVYYCFQGSHVPWTFGQGTKLEIK", "EC50 (read off the curve)": 0.06}
{"binder": "SDP151 humanized anti-Cad-11 EC1 antibody (Vκ3/VH5) (antibody, IgG4, V domains shown) VH: EVQLVQSGAEVKKPGASVKVSCKASGYSFTGYFMNWVRQAPGQGLEWIGRINPYTGDTFYNQKFKGRVTITVDKSTSTAYMELSSLRSEDTAVYYCGRLGSRYWYFDVWGQGTTVTVSS VL: DVVMTQTPLSSPVTLGQPASISCRSSQSIIHSNGNTYLEWYLQKPGQSPQLLIYKVSNRFSGVPDRFSGSGSGTDFTLKISRVEAEDVGVYYCFQGSHVPWTFGQGTKLEIK", "EC50 (read off the curve)": 0.06}
{"target": "T2, human Cadherin-11 on cells (Cad-11-expressing 431-D-11 cells; human fibroblast-like synoviocytes) (human) (UniProt P55287)", "T2 sequence": "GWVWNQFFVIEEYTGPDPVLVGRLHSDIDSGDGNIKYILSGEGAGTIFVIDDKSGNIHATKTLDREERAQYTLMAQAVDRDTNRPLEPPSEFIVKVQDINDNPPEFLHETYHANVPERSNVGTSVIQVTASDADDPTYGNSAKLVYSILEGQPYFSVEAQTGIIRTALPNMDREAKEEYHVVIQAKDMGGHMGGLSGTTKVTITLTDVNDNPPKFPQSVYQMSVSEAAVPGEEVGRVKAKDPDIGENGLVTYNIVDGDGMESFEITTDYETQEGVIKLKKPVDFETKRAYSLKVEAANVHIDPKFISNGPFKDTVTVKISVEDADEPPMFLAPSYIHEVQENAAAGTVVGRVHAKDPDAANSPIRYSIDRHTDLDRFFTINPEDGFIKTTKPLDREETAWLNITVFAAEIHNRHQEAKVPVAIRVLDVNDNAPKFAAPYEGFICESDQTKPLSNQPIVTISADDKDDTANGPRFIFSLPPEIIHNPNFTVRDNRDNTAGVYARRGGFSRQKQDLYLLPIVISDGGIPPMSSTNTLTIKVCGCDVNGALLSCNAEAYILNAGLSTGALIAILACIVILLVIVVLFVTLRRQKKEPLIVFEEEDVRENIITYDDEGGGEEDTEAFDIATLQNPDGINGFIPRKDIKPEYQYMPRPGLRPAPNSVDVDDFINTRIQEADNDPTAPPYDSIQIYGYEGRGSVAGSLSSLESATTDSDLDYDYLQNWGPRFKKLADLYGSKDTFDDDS", "test": "cell-based or functional assay", "units": {"Cad-11 mediated cell aggregation": "µg/mL"}}
{"binder": "Cad-11-EC1-5-Fc fusion protein (5 extracellular domains of Cad-11 fused to the human IgG2 hinge, CH2 and CH3 domains) (Fc fusion, not shown: a dimerising Fc or GST) GWVWNQFFVIEEYTGPDPVLVGRLHSDIDSGDGNIKYILSGEGAGTIFVIDDKSGNIHATKTLDREERAQYTLMAQAVDRDTNRPLEPPSEFIVKVQDINDNPPEFLHETYHANVPERSNVGTSVIQVTASDADDPTYGNSAKLVYSILEGQPYFSVEAQTGIIRTALPNMDREAKEEYHVVIQAKDMGGHMGGLSGTTKVTITLTDVNDNPPKFPQSVYQMSVSEAAVPGEEVGRVKAKDPDIGENGLVTYNIVDGDGMESFEITTDYETQEGVIKLKKPVDFETKRAYSLKVEAANVHIDPKFISNGPFKDTVTVKISVEDADEPPMFLAPSYIHEVQENAAAGTVVGRVHAKDPDAANSPIRYSIDRHTDLDRFFTINPEDGFIKTTKPLDREETAWLNITVFAAEIHNRHQEAKVPVAIRVLDVNDNAPKFAAPYEGFICESDQTKPLSNQPIVTISADDKDDTANGPRFIFSLPPEIIHNPNFTVRDNRDNTAGVYARRGGFSRQKQDLYLLPIVISDGGIPPMSSTNTLTIKVCGCDVNGALLSCNAEAYILNAGLST", "Cad-11 mediated cell aggregation": 100}
{"binder": "human Cad-11-EC1-hIgG2-Fc1 fusion protein (Fc fusion) FAPERRGHLRPSFHGHHEKGKEGQVLQRSKRGWVWNQFFVIEEYTGPDPVLVGRLHSDIDSGDGNIKYILSGEGAGTIFVIDDKSGNIHATKTLDREERAQYTLMAQAVDRDTNRPLEPPSEFIVKVQRSVECPPCPAPPVAGPSVFLFPPKPKDTLMISRTPEVTCVVVDVSHEDPEVQFNWYVDGMEVHNAKTKPREEQFNSTFRVVSVLTVVHQDWLNGKEYKCKVSNKGLPAPIEKTISKTKGQPREPQVYTLPPSREEMTKNQVSLTCLVKGFYPSDIAVEWESNGQPENNYKTTPPMLDSDGSFFLYSKLTVDKSRWQQGNVFSCSVMHEALHNHYTQKSLSLSPGKVPRLA", "Cad-11 mediated cell aggregation": 3}
